The nature of series [1]: NADPH dependent DEHU hydrogenation assay (DEHU hydrogenase). The series is classed as biochemical. The following applies: E. coli cell lysate containing each ADH; NADPH consumption at 340 nm for 30 min; FIG. 7A. As to the method: (§1) To identify DEHU hydrogenase, a NADPH dependent DEHU hydrogenation assay was performed. 20 μl of prepared cell lysate containing each ADH was added to 160 μl of 20-fold deluted DEHU solution prepared in the above section. 20 μl of 2.5 mg/ml of NADPH solution (20 mM Tris-HCl, pH 8.0) was added to initiate the hydrogenation reaction, as a preliminary study using cell Lysate of A. tumefaciens C58 have shown that DEHU hydrogenation requires NADPH as a co-factor. The consumption of NADPH was monitored an absorbance at 340 nm for 30 min using the kinetic mode of ThermoMAX 96 well plate reader (Molecular Devises). E. coli cell lysate containing alcohol dehydrogenase (ADH) 10 lacking a portion of N-terminal domain was used in a control reaction mixture.

The nature of series [2]: NADH/NADPH production assay, oxidation of 4-octanol by secondary alcohol dehydrogenases. Type of series: biochemical. The note with it: 30° C.; for oxidation of 4-octanol as measured by NADPH production: in the presence of NADP+, FIG. 30B. As to the method:
[…] consumption and production assays were performed using a THERMOmax microplate reader in the kinetic mode, monitoring the NADPH absorbance peak at 340 nm until the reaction reached equilibrium. […] These reaction conditions are found in Table 4 below.

The nature of series [3]: NADPH dependent D-mannuronate hydrogenation assay (D-mannuronate hydrogenase). Type of series: biochemical. The following applies: E. coli cell lysate containing each ADH; NADPH consumption at 340 nm for 30 min; FIG. 7B. As to the method:
as §1, with “D-mannuronate” for “DEHU”, “D-mannuronate” for “20-fold deluted DEHU”, “reaction.” for “reaction, as a preliminary study using cell Lysate of A. tumefaciens C58 have shown that DEHU hydrogenation requires NADPH as a co-factor.”

The nature of series [4]: In vitro pyruvate formation from alginate with purified enzymes. The note with it: ~5 ug purified enzyme with Atu3025, UxuA, KdgK, KdgA; 1% alginate or ~0.5% mannuronate; over night; FIG. 6B, 6C.
Method: The reaction mixture contained 1% alginate or ˜0.5% mannuronate, ˜5 ug of purified Atu3026 (ADH12) or Atu3027 (ADH11), and ˜5 ug of purified oligoalginate lyase (Atu3025), UxuA, KdgK, and KdgA, 2 mM of ATP, and 0.6 mM of NADPH in 20 mM Tris-HCl pH7.0. The reaction was carried out over night and the pyruvate formation was monitored by the pyruvate assay kit (BioVision, Inc).

B1: ADH1: alcohol dehydrogenase isolated from Agrobacterium tumefaciens C58, polypeptide SEQ ID NO: 70 (protein)
chain: MFTTSAYACDDGSSPMKLATIRRRDPGPRDVEIEIEFCGVCHSDIHTARSEWPGSLYPCVPGHEIVGRVGRVGAQVTRFKTGDRVGVGCIVDSCRECASCAEGLEQYCENGMTGTYNSPDKAMGGGAHTLGGYSAHVVVDDRYVLNIPEGLDPAAAAPLLCAGITTYSPLRHWNAGPGKRVGVVGLGGLGHMAVKLANAMGATVVMITTSPGKAEDAKKLGAHEVIISRDAEQMKKATSSLDLIIDAVAADHDIDAYLALLKRDGALVQVGAPEKPLSVMAFSLIPGRKTFAGSMIGGIPETQEMLDFCAEKGIAGEIEMIDIDQINDAYERMIKSDVRYRFVIDMKSLPRQKAA
modifications: Agrobacterium tumefaciens C58
In the case of B1, the DEHU hydrogenase activity entry in series [1] was “significant DEHU hydrogenase activity”.

B2: 2ADH-2: secondary alcohol dehydrogenase isolated from Pseudomonas putida KT2440, SEQ ID NO: 112 (protein)
chain: MSMTFSGQVALVTGAGAGIGRATALAFAHEGMKVVVADLDPVGGEATVAQIHAAGGEALFIACDVTRDAEVRQLHERLMAAYGRLDYAFNNAGIEIEQHRLAEGSEAEFDAIMGVNVKGVWLCMKYQLPLLLAQGGGAIVNTASVAGLGAAPKMSIYSASKHAVIGLTKSAAIEYAKKGIRVNAVCPAVIDTDMFRRAYQADPRKAEFAAAMHPVGRIGKVEEIASAVLYLCSDGAAFTTGHCLTVDGGATAI
modifications: Pseudomonas putida KT2440
For B2, the “oxidation of 4-octanol as measured by NADH production” value in series [2] (in the presence of NAD+, FIG. 30A) is reported as “catalyzes the oxidation of 4-octanol”.

B3: ADH9: alcohol dehydrogenase isolated from Agrobacterium tumefaciens C58, polypeptide SEQ ID NO: 86 (protein)
chain: MKAIVAHGAKDVRIEDRPEEKPGPGEVRLRLARGGICGSDLHYYNHGGFGAVRLREPMVLGHEVSAVIEELGEGVEGLKIGGLVAVSPSRPCRTCRFCQEGLHNQCLNMRFYGSAMPFPHIQGAFREILVADALQCVPADGLSAGEAAMAEPLAVTLHATRRAGDLLGKRVLVTGCGPIGILSILAARRAGAAEIVATDLSDFTLGKAREAGADRVINSKDEPDALAAYGANKGTFDILYECSGAAVALAGGITALRPRGIIVQLGLGGDMSLPMMAITAKELDLRGSFRFHEEFATGVELMRKGLIDVKPFITQTVDLADAISAFEFASDRSRAMKVQIAFS
modifications: Agrobacterium tumefaciens C58
On to B3, for which, in series [3], the mannuronate hydrogenase activity entry is “significant mannuronate hydrogenase activity”.

B4: Atu3026: alcohol dehydrogenase isolated from Agrobacterium tumefaciens C58, polypeptide SEQ ID NO: 92 (protein)
chain: MQRFTNRTIVVAGAGRDIGRACAIRFAQEGANVVLTYNGAAEGAATAVAEIEKLGRSALAIKADLTNAAEVEAAISAAADKFGEIHGLVHVAGGLIARKTIAEMDEAFWHQVLDVNLTSLFLTAKTALPKMAKGGAIVTFSSQAGRDGGGPGALAYATSKGAVMTFTRGLAKEVGPKIRVNAVCPGMISTTFHDTFTKPEVRERVAGATSLKREGSSEDVAGLVAFLASDDAAYVTGACYDINGGVLFS
modifications: Agrobacterium tumefaciens C58
B4: in series [4], the “DEHU hydrogenase and mannuronate hydrogenase reactions in pyruvate formation from alginate” value is “capable of catalyzing both DEHU hydrogenase and mannuronate hydrogenase reactions”.

B5: ADH4: alcohol dehydrogenase isolated from Agrobacterium tumefaciens C58, polypeptide SEQ ID NO: 76 (protein)
chain: MTGANQPWEVQEVPVPKAEPGLVLVKIHASGMCYTDVWATQGAGGDIYPQTPGHEVVGEIIEVGAGVHTRKVGDRVGTTWVQSSCGRCSYCRQNRPLTGQTAMNCDSPRTTGFATQGGHAEYIAISAEGTVLLPDGLDYTDAAPMMCAGYTTWSGLRDAEPKPGDRIAVLGIGGLGHVAVQFSKALGFETIAITHSPDKHKLATDLGADIVVADGKELLEAGGADVLLVTTNDFDTAEKAMAGVRPDGRIVLCALDFSKPFSIPSDGKPFHMMRQRVVGSTHGGQHYLAEILDLAAKGKVKPIVETFALEQATEAYERLSTGKMRFRGVFLPHGA
modifications: Agrobacterium tumefaciens C58
B5: the mannuronate hydrogenase activity result in series [3] was “significant mannuronate hydrogenase activity”.

B6: 2ADH-8: secondary alcohol dehydrogenase isolated from Pseudomonas putida KT2440, SEQ ID NO: 124 (protein)
chain: MSLQGKVALVTGASRGIGQAIALELGRQGATVIGTATSASGAERIAATLKEHGITGTGMELNVTSAESVEAVLAAIGEQFGAPAILVNNAGITRDNLMLRMKDDEWFDVIDTNLNSLYRLSKGVLRGMTKARWGRIISIGSVVGAMGNAGQANYAAAKAGLEGFSRALAREVGSRGITVNSVTPGFIDTDMTRELPEAQREALQTQIPLGRLGQADEIAKVVSFLASDGAAYVTGATVPVNGGMYM
modifications: Pseudomonas putida KT2440
For the molecule B6, the “oxidation of 4-octanol as measured by NADPH production” value (“oxidation … by NADPH production” for short) in series [2] is “catalyze the oxidation of 4-octanol”.

B7: ADH3: alcohol dehydrogenase isolated from Agrobacterium tumefaciens C58, polypeptide SEQ ID NO: 74 (protein)
chain: MTKTMKAAVVRAFGKPLTIEEVAIPDPGPGEILINYKATGVCHTDLHAATGDWPVKPNPPFIPGHEGAGYVAKIGAGVTGIKEGDRAGTPWLYTACGCCIPCRTGWETLCPSQKNSGYSVNGSFAEYGLADPKFVGRLPDNLDFGPAAPVLCAGVTVYKGLKETEVRPGEWVVISGIGGLGHMAVQYAKAMGMHVVAADIFDDKLALAKKLGADVVVNGRAPDAVEQVQKATGGVHGALVTAVSPKAMEQAYGFLRSKGTMALVGLPPGFISIPVFDTVLKRITVRGSIVGTRQDLEEALTFAGEGKVAAHFSWDKLENINDIFHRMEEGKIDGRIVVDLAA
modifications: Agrobacterium tumefaciens C58
Turning to B7, in series [3], the mannuronate hydrogenase activity result is on record as “significant mannuronate hydrogenase activity”.

B8: 2ADH-5: secondary alcohol dehydrogenase isolated from Pseudomonas putida KT2440, SEQ ID NO: 118 (protein)
chain: MSKQLTLEGKVALVQGGSRGIGAAIVRRLAREGAQVAFTYVSSAGPAEELAREITENGGKALALRADSADAAAVQLAVDDTEKALGRLDILVNNAGVLAVAPVTEFDLADFDHMLAVNVRSVFVASQAAARYMGQGGRIINIGSTNAERMPFAGGAPYAMSKSALVGLTRGMARDLGPQGITVNNVQPGPVDTDMNPASGEFAESLIPLMAIGRYGEPEEIASFVAYLAGPEAGYITGASLTVDGGFAA
modifications: Pseudomonas putida KT2440
Consider B8, for which the “oxidation … by NADPH production” value in series [2] is listed as “catalyze the oxidation of 4-octanol”.

B9: 2ADH-10: secondary alcohol dehydrogenase isolated from Pseudomonas putida KT2440, SEQ ID NO: 128 (protein)
chain: MSKTHLFDLDGKIAFVSGASRGIGEAIAHLLAQQGAHVIVSSRKLDGCQQVADAIIAAGGKATAVACHIGELEQIQQVFAGIREQFGRLDVLVNNAATNPQFCNVLDTDPGAFQKTVDVNIRGYFFMSVEAGKLMRENGGGSIINVASINGVSPGLFQGIYSVTKAAVINMTKVFAKECAPFGIRCNALLPGLTDTKFASALVKNEAILNAALQQIPLKRVADPKEMAGAVLYLASDASSYTTGTTLNVDGGFLS
modifications: Pseudomonas putida KT2440
Consider B9, for which, in series [2], the “oxidation … by NADPH production” value was “catalyze the oxidation of 4-octanol”.

B10: ADH2: alcohol dehydrogenase isolated from Agrobacterium tumefaciens C58, polypeptide SEQ ID NO: 72 (protein)
chain: MAIARGYAATDASKPLTPFTFERREPNDDDVVIDIKYAGICHSDIHTVRNEWHNAVYPIVPGHEIAGVVRAVGSKVTRFKVGDHVGVGCFVDSCVGCATRDVDNEQYMPGLVQTYNSVERDGKSATQGGYSDHIVVREDYVLSIPDNLPLDASAPLLCAGITLYSPLQHWNAGPGKKVAIVGMGGLGHMGVKIGSAMGADITVLSQTLSKKEDGLKLGAKEYYATSDASTFEKLAGTFDLILCTVSAEIDWNAYLNLLKVNGTMVLLGVPEHAIPVHAFSVIPARRSLAGSMIGSIKETQEMLDFCGKHDIVSEIETIGIKDVNEAYERVLKSDVRYRFVIDMASLDA
modifications: Agrobacterium tumefaciens C58
As to B10, the DEHU hydrogenase activity entry in series [1] is “significant DEHU hydrogenase activity”.

The record behind these values is US8318473B2, “Biofuel production” (Bio Architecture Lab, Inc., priority 2007, dated 2012).
